In assay [1] the target is murine CTLA4 on murine T-cells (C57BL/6 splenocytes) (mouse, UniProt P09793 36-223). Briefly: cell-based or functional assay.
Assay [2] deals with T1, CTLA4-Fc MMP9 (MMP9-cleavable CTLA4-Fc mask; CTLA4-Fc_WT) (human).
T1 construct: It was expressed in insect cells; also called CTLA-4-MMP9-Fc; CTLA4-MMP9-Fc
Briefly: SPR, CTLA-4-MMP9-Fc coupled to the sensor chip and titrated with m-Lcn2-Fc; no dissociation observed. The source says:
To verify that the m-Lcn2-Fc and CTLA-4-Fc form a 1:1 complex, we used analytical size exclusion chromatography (SEC) (FIG. 3 panel A). A definitive shift to earlier elution volumes was observed, consistent with a molecular mass of 200 kD, as expected. To verify an increase in the apparent affinity due to the energy additivity of bivalent-bivalent interaction, the mask, CTLA-4-MMP9-Fc, was coupled to a CMS sensor chip and titrated with the bivalent m-Lcn2-Fc. A substantial increase in affinity was observed. In fact, no dissociation was observed and thus no calculation could be completed for an apparent dissociation constant (FIG. 3 panel B). […] In an attempt to establish the off-rate, a competition assay was carried out. Specifically, the 1:1 m-Lcn2-Fc|CTLA-4-MMP9-Fc complex was isolated and incubated with 10 fold excess of Alexafluor-labeled CTLA-4-MMP9-Fc. The exchange by size exclusion chromatography was followed by monitoring at […]. After two weeks, less than 5% exchange was observed.
Surface Plasmon Resonance (SPR). SPR experiments were performed on a GE Biacore T100 instrument at 25° C. Ligands were amine coupled to CMS chips at 300 Rmax. Blank lanes were used as baseline control. Analyte titrations were prepared as serial dilutions in HBS-EP⁺ running buffer (10 mM Hepes pH 7.4, 150 mM NaCl, 3 mM EDTA, 0.05% v/v P20). […]
Background: SPR reads the build-up and loss of mass on a sensor chip optically.

Assay [3] concerns the target T2, CTLA-4-Fc (purchased from R&D systems) (human, UniProt P16410 37-162).
T2 construct: Bought reagent; also called human CTLA4; not shown: Fc part and linker of the commercial product are not described
T2 sequence (looked up): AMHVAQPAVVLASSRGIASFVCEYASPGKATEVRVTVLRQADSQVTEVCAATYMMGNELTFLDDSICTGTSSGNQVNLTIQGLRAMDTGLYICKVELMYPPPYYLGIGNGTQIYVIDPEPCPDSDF
Briefly: calculated from the koff of the monovalent m-Lcn2 : CTLA-4 interaction.

The target of assay [4] is T1, CTLA4-Fc MMP9 (MMP9-cleavable CTLA4-Fc …). The assay can be described thus: calculated from SPR kd, t1/2 = ln(2)/kd. The procedure:
(§1) Surface Plasmon Resonance (SPR). SPR experiments were performed on a GE Biacore T100 instrument at 25° C. Ligands were amine coupled to CMS chips at 300 Rmax. Blank lanes were used as baseline control. Analyte titrations were prepared as serial dilutions in HBS-EP⁺ running buffer (10 mM Hepes pH 7.4, 150 mM NaCl, 3 mM EDTA, 0.05% v/v P20). Increasing concentrations of analytes were flowed over blank and ligand lanes at 50 μL/min. Regeneration buffer (1 M NaCl, 10 mM glycine pH 2.6) was flowed at 90 μL/min for 10 s. Data analyses were performed using Biacore T100 Evaluation Software, version 1.1.1 (GE Healthcare). Response reported as the difference between blank and peptide lanes.
(§2) TABLE 3 Kinetics of CTLA4-Fc mask variants, as measured by SPR. Binding kinetics of mLCN2 for each CTLA4-Fc variant was measured by SPR. Half-life time was calculated from equation: t_{1/2} = ln (2)/kd.

Assay [5] addresses T3, CTLA4-Fc variant E31S R33E T51H (human).
T3 construct: Whole fusion (CTLA4 extracellular domain, MMP9 linker, IgG1 Fc) with E31S, R33E and T51H; also called E31S, R33E, T51H CTLA-4
The assay can be described thus: calculated from SPR kd, t1/2 = ln(2)/kd. The protocol: as §1, §2

Assay [6] deals with T4, CTLA4-Fc variant E31A R33A (human).
T4 construct: Whole fusion (CTLA4 extracellular domain, MMP9 linker, IgG1 Fc) with E31A and R33A; also called E31A and R33A CTLA-4
T4 sequence (chain, as listed by the source E31A R33A E31A R33A limits assumed): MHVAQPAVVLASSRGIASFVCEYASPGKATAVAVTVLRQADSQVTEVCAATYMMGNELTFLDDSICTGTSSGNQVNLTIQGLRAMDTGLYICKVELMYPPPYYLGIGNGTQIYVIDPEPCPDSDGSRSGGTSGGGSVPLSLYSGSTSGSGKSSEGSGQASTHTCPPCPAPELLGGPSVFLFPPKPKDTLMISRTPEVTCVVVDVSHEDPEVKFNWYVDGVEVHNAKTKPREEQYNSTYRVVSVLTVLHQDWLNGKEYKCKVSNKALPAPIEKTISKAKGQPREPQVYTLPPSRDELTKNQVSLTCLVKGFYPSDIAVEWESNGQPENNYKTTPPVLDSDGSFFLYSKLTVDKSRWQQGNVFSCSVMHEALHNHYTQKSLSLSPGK
The assay can be described thus: calculated from SPR kd, t1/2 = ln(2)/kd. The protocol:
as §1, §2

For assay [7], the target named is CTLA4-Fc variant Y52F (human). The assay can be described thus: calculated from SPR kd, t1/2 = ln(2)/kd. The protocol:
as §1, §2

In assay [8] the target is T5, CTLA4-Fc variant T51H (human).
T5 construct: Whole fusion (CTLA4 extracellular domain, MMP9 linker, IgG1 Fc) with T51H; also called T51H CTLA-4
T5 sequence (chain, as listed by the source T51H T51H limits assumed): as the sequence (chain, as listed by the source E31A R33A E31A R33A limits assumed) above, with A31E, A33R, T51H counted along it
Briefly: calculated from SPR kd, t1/2 = ln(2)/kd. The procedure: as §1, §2

Assay [9] deals with T1, CTLA4-Fc MMP9 (MMP9-cleavable CTLA4-Fc …). Briefly: SPR (Biacore T100), mLCN2 on CTLA4-Fc variant. The procedure:
as §1, §2

Assay [10] deals with T3, CTLA4-Fc variant E31S R33E T51H. The assay can be described thus: SPR (Biacore T100), mLCN2 on CTLA4-Fc variant. The procedure: as §1, §2
The target in assay [11] is T4, CTLA4-Fc variant E31A R33A. The assay can be described thus: SPR (Biacore T100), mLCN2 on CTLA4-Fc variant. The protocol:
as §1, §2

Assay [12] concerns the target CTLA4-Fc variant Y52F (human). Briefly: SPR (Biacore T100), mLCN2 on CTLA4-Fc variant. The procedure: as §1, §2
Assay [13] addresses T5, CTLA4-Fc variant T51H. Briefly: SPR (Biacore T100), mLCN2 on CTLA4-Fc variant. The protocol: as §1, §2
Assay [14] addresses T2, CTLA-4-Fc (purchased from R&D systems). Briefly: SPR presumed; method not given; monovalent m-Lcn2 to CTLA-4.

Results on two molecules are retold here after patent publication US20200325212A1 (CITY OF HOPE, published 2020).

T1 sequence (chain, as listed by the source limits assumed): as the sequence (chain, as listed by the source E31A R33A E31A R33A limits assumed) above, with A31E, A33R counted along it
T3 sequence (chain, as listed by the source E31S R33E T51H E31S R33E T51H limits assumed): as the sequence (chain, as listed by the source E31A R33A E31A R33A limits assumed) above, with A31S, A33E, T51H counted along it
Chain of CTLA4-Fc variant Y52F (human) (chain, as listed by the source Y52F Y52F limits assumed): as the sequence (chain, as listed by the source E31A R33A E31A R33A limits assumed) above, with A31E, A33R, Y52F counted along it

B1: mLCN2-Fc (bivalent m-Lcn2 fused to human IgG1 Fc) (Fc fusion)
chain: QDSTSDLIPAPPLSKVPLQQNFQDNQFHGKWYVVGLAGNRILRDDQHPMNMYATIYELKEDKSYNVTSVISSHKKCEYTIATFVPGSQPGEFTLGNIKSYGDKTSYLVRVVSTDYNQYAVVFFKLAEDNAEFFAITIYGRTKELASELKENFIRFSKSLGLPENHIVFPVPIDQCIDG
notes: m-Lcn2 cDNA was subcloned N-terminal to a linker-Fc domain and expressed in insect cells; also called bivalent m-Lcn2-Fc; unmasked m-Lcn2-Fc; not shown: linker between m-Lcn2 and Fc; human IgG1 Fc fragment
Usually Kd stands for the free concentration of one partner at which half of the binding sites on the other are occupied at equilibrium, for simple one-to-one binding. High values mean lower affinity, low ones higher affinity. Consider B1, for which the “induction of IFN-γ production (Elispot)” value in assay [1] stood at 10 fold. The same molecule registered a Kd in assay [2] of no more than 0.2 nM.

B2: modified lipocalin2 (mLcn2), monovalent (designed binder)
chain: QDSTSDLIPAPPLSKVPLQQNFQDNQFHGKWYVVGLAGNRILRDDQHPMNMYATIYELKEDKSYNVTSVISSHKKCEYTIATFVPGSQPGEFTLGNIKSYGDKTSYLVRVVSTDYNQYAVVFFKLAEDNAEFFAITIYGRTKELASELKENFIRFSKSLGLPENHIVFPVPIDQCIDG
notes: Re-engineered human lipocalin 2 used as a CTLA-4 antagonist; also called monovalent mLCN2; monomeric mLCN2
The term koff denotes the first-order rate constant of dissociation. Lower therefore signals a long-lived complex. The kon is the second-order rate constant of association. A low value points to slower complex formation. For B2, the “t1/2 (dissociation half-life, 0.693/KOFF)” value in [3] was 22 min. Moreover, the “Calculated t1/2” value was 57.8 min in assay [4]; 0.467 min in [5]; 11.6 min in assay [6]; 53.7 min with CTLA4-Fc variant Y52F [7]; 52.5 min in the assay with CTLA4-Fc variant T51H [8]. Besides, the equilibrium dissociation constant (Kd) came to 5.52 nM in assay [9]; 5600 nM in assay [10]; 100 nM in [11]; 6.14 nM in the assay with CTLA4-Fc variant Y52F [12]; 9.07 nM with CTLA4-Fc variant T51H [13]. In addition, the koff is 0.000201 s⁻¹ in [9]; 0.025 s⁻¹ in [10]; 0.0011 s⁻¹ in assay [11]; 0.000215 s⁻¹ in the assay with CTLA4-Fc variant Y52F [12]; 0.00022 s⁻¹ with CTLA4-Fc variant T51H [13]; 0.00051 s⁻¹ in assay [14]. Further, the kon stood at 36400 M⁻¹ s⁻¹ in assay [9]; 4430 M⁻¹ s⁻¹ in assay [10]; 11000 M⁻¹ s⁻¹ in [11]; 35100 M⁻¹ s⁻¹ with CTLA4-Fc variant Y52F [12]; 24200 M⁻¹ s⁻¹ with CTLA4-Fc variant T51H [13].
